Like-named read-outs stand apart in the source and are kept apart here.
T1: FcγRIIa H (human, UniProt P12318 34-217)
T1 construct: extracellular domain; Soluble His-tagged extracellular domain expressed in FreeStyle293 cells; also called FcγRIIa type H; FcgRIIa H; not shown: His tag attached to the C terminus
T1 sequence (looked up): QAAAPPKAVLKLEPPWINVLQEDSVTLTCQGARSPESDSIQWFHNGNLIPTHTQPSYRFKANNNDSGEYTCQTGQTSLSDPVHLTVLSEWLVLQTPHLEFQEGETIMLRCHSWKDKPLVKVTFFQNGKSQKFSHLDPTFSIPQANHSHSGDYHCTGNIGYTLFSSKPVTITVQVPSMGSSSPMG

T2: FcγRIIb (human, UniProt P31994 43-217)
T2 construct: extracellular domain; Soluble His-tagged extracellular domain expressed in FreeStyle293 cells; also called FcgRIIb; 2b; not shown: His tag attached to the C terminus
T2 sequence (looked up): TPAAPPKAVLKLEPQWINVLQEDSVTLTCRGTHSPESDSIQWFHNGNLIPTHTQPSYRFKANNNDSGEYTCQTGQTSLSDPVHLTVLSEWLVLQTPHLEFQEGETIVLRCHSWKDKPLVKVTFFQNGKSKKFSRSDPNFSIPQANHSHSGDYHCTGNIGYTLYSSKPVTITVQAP

T3: FcγRIIb (human, UniProt P31994 43-217)
T3 construct: extracellular domain; also called FcgRIIb; 2b; not shown: His tag at the C terminus
T3 sequence (looked up): T2 sequence (looked up)

B1: GpH7-A5/GpH7-B3 variant K334_20W/GpL16-k0 (antibody, human IgG1, kappa)
heavy 1: not shown
heavy 2: not shown
light: DIVMTQSPLSLPVTPGEPASISCQASESLVHSNRNTYLHWYLQKPGQSPQLLIYKVSNRFSGVPDRFSGSGSGTDFTLKISRVEAEDVGVYYCSQNTHVPPTFGQGTKVEIERTVAAPSVFIFPPSDEQLKSGTASVVCLLNNFYPREAKVQWKVDNALQSGNSQESVTEQDSKDSTYSLSSTLTLSKADYEKHKVYACEVTHQGLSSPVTKSFNRGEC
notes: Heterodimerized anti-glypican-3 IgG1; mutation in the GpH7-B3 H chain only; also called He Ab
B2: GpH7-A5/GpH7-B3 variant N325_20W/GpL16-k0 (antibody, human IgG1, kappa)
heavy 1: not shown
heavy 2: not shown
light: B1 light
notes: heterodimerized IgG1; alteration in the GpH7-B3 H chain only; also called He Ab
B3: GpH7-A5/GpH7-B3 variant I332_10E/GpL16-k0 (antibody, human IgG1, kappa)
heavy 1: not shown
heavy 2: not shown
light: B1 light
notes: as for B2
B4: GpH7-A5/GpH7-B3 variant L328_10E/GpL16-k0 (antibody, human IgG1, kappa)
heavy 1: not shown
heavy 2: not shown
light: B1 light
notes: as for B2
B5: GpH7-A5/GpH7-B3 variant P331_16H/GpL16-k0 (antibody, human IgG1, kappa)
heavy 1: not shown
heavy 2: not shown
light: B1 light
notes: as for B2
B6: GpH7-A5/GpH7-B3 variant K326_08L/GpL16-k0 (antibody, human IgG1, kappa)
heavy 1: not shown
heavy 2: not shown
light: B1 light
notes: as for B1
B7: GpH7-A5/GpH7-B3 variant L328_15Y/GpL16-k0 (antibody, human IgG1, kappa)
heavy 1: not shown
heavy 2: not shown
light: B1 light
notes: as for B2
B8: GpH7-A5/GpH7-B3 variant L328_09D/GpL16-k0 (antibody, human IgG1, kappa)
heavy 1: not shown
heavy 2: not shown
light: B1 light
notes: as for B2
B9: GpH7-A5/GpH7-B3 variant L328_07I/GpL16-k0 (antibody, human IgG1, kappa)
heavy 1: not shown
heavy 2: not shown
light: B1 light
notes: as for B2
B10: GpH7-A5/GpH7-B3 variant N325_04F/GpL16-k0 (antibody, human IgG1, kappa)
heavy 1: not shown
heavy 2: not shown
light: B1 light
notes: as for B2
B11: GpH7-A5/GpH7-B3 variant L328_13S/GpL16-k0 (antibody, human IgG1, kappa)
heavy 1: not shown
heavy 2: not shown
light: B1 light
notes: as for B2
B12: GpH7-A5/GpH7-B3 variant N325_07I/GpL16-k0 (antibody, human IgG1, kappa)
heavy 1: not shown
heavy 2: not shown
light: B1 light
notes: as for B2
B13: GpH7-A5/GpH7-B3 variant N325_13S/GpL16-k0 (antibody, human IgG1, kappa)
heavy 1: not shown
heavy 2: not shown
light: B1 light
notes: as for B2
B14: GpH7-A5/GpH7-B3 variant K326_06M/GpL16-k0 (antibody, human IgG1, kappa)
heavy 1: not shown
heavy 2: not shown
light: B1 light
notes: as for B1
B15: GpH7-A5/GpH7-B3 variant K326_07I/GpL16-k0 (antibody, human IgG1, kappa)
heavy 1: not shown
heavy 2: not shown
light: B1 light
notes: as for B1
B16: GpH7-A5/GpH7-B3 variant K326_15Y/GpL16-k0 (antibody, human IgG1, kappa)
heavy 1: not shown
heavy 2: not shown
light: B1 light
notes: as for B1

Columns and labels:
FcγRIIa H [1] = molecular target: T1, FcγRIIa H; experiment: SPR (Biacore), captured antibody, FcγR analyte; relative to GpH7-A5/GpH7-B3/GpL16-k0 = 100
Procedure: (§1) The heterodimerized antibodies He Abs in which one of the H chains was introduced with an alteration were assayed for their binding activities to each activating FcγR and inhibitory FcγR according to the method described in Example 4. […] The activating FcγRs in FIGS. 26, 27, 28, and 29 are FcγRIa, FcγRIIa (R), FcγRIIa (H), and FcγRIIIa, respectively.
(§2) Analysis of interaction between objective antibody and the FcγR was carried out using Biacore T100 (GE Healthcare). HBS-EP+ (GE Healthcare) was used as the running buffer, and the measurement temperature was set to 25° C. Chips produced by immobilizing the antigen peptide by the amine coupling method to a Series S Sencor Chip CM5 (GE Healthcare), or alternatively, chips produced by allowing preliminarily biotinylated antigen peptides to interact with and immobilize onto a Series S Sensor Chip SA (certified) (GE Healthcare) were used. Antibodies of interest were captured onto an antigen peptide-immobilized chip, and allowed to interact to each FcγR diluted with running buffer. To regenerate and repeatedly use the chip, the antibodies captured on the chip were washed off by reacting 10 mM glycine-HCl, pH 1.5.

FcγRIIb [2] = molecular target: T2, FcγRIIb; experiment: as above
Procedure: as §1, §2

FcγRIIb [3] = molecular target: T3, FcγRIIb; experiment: SPR (Biacore), antibody captured, FcγR as analyte; binding as % of GpH7-A5/GpH7-B3/GpL16-k0
FcγRIa [4] = molecular target: T4, FcγRIa (human, UniProt P12314 16-292); experiment: as above
T4 construct: extracellular domain; also called FcgRI; 1a; not shown: His tag at the C terminus

FcγRIa [5] = molecular target: T4, FcγRIa; experiment: SPR (Biacore); He/Con_1a (FcγRIa) divided by He/Con_2b (FcγRIIb)
FcγRIIb [6] = molecular target: T3, FcγRIIb; experiment: SPR (Biacore), antibody captured, FcγR as analyte; binding as % of GpH7-A5/GpH7-B3/GpL16-k0; remark: listed apart in the source
FcγRIa [7] = molecular target: T4, FcγRIa; experiment: as above; remark: listed apart in the source
FcγRIIa H [8] = molecular target: T1, FcγRIIa H; experiment: SPR (Biacore); He/Con_2aH divided by He/Con_2b (FcγRIIb) of the same antibody
Procedure: as §1, §2

T4 sequence (P12314 16-292): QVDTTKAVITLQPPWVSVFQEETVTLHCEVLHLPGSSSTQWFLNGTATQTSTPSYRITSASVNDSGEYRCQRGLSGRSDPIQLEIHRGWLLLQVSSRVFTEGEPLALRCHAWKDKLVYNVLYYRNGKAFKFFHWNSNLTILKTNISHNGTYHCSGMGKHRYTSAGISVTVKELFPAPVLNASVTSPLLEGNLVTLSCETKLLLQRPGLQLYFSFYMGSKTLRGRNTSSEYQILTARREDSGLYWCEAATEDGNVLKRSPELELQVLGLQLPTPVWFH

Row | Binder | He/Con_2aH (FcγRIIa H [1]) | He/Con_2b (FcγRIIb [2]) | He/Con_2b (FcγRIIb [3]) | He/Con_1a (FcγRIa [4]) | Ia/IIb He_1a/2b (FcγRIa [5]) [ratio] | He/Con_2b (FcγRIIb [6]) | He/Con_1a (FcγRIa [7]) | He_2aH/2b (FcγRIIa H [8]) [ratio]
1 | B1 | 97.6 relative (control = 100) | 104 relative (control = 100) |  |  |  |  |  | 
2 | B2 |  |  | 169 % of control | 93.8 % of control | 0.56 | 169 % of control | 93.8 % of control | 
3 | B3 |  |  |  |  | 0.68 | 142 % of control | 96.3 % of control | 
4 | B4 |  |  |  |  | 0.59 | 172 % of control | 101 % of control | 
5 | B5 |  |  |  |  | 0.8 | 116 % of control | 92.4 % of control | 
6 | B6 | 92.7 relative (control = 100) | 177 relative (control = 100) |  |  |  |  |  | 0.52
7 | B7 |  |  |  |  | 0.53 | 193 % of control | 102 % of control | 
8 | B8 |  |  |  |  | 0.51 | 199 % of control | 102 % of control | 
9 | B9 |  |  | 160 % of control | 99.4 % of control | 0.62 | 160 % of control | 99.4 % of control | 
10 | B10 |  |  |  |  | 0.65 | 143 % of control | 93.2 % of control | 
11 | B11 |  |  | 149 % of control | 99 % of control | 0.66 | 149 % of control | 99 % of control | 
12 | B12 |  |  |  |  | 0.55 | 171 % of control | 94.8 % of control | 
13 | B13 |  |  | 177 % of control | 96.8 % of control | 0.55 | 177 % of control | 96.8 % of control | 
14 | B14 | 103 relative (control = 100) | 165 relative (control = 100) |  |  |  |  |  | 0.63
15 | B15 | 100 relative (control = 100) | 199 relative (control = 100) |  |  |  |  |  | 0.5
16 | B16 | 98.3 relative (control = 100) | 159 relative (control = 100) |  |  |  |  |  | 0.62
